{"source": "patent US11191771B2", "about": "“Combinations of PBD-based antibody drug conjugates with FLT3 inhibitors” (Seagen Inc., priority 2016, dated 2021)", "molecules": {"B1": {"name": "SGN-CD33A: h2H12EC antibody conjugated to SGD-1910, the pyrrolobenzodiazepine dimer drug-linker (conjugate, chains of the INN, looked up)", "VH": "QVQLVQSGAEVKKPGASVKVSCKASGYTFTNYDINWVRQAPGQGLEWIGWIYPGDGSTKYNEKFKAKATLTADTSTSTAYMELRSLRSDDTAVYYCASGYEDAMDYWGQGTTVTVSS", "VL": "DIQMTQSPSSLSASVGDRVTINCKASQDINSYLSWFQQKPGKAPKTLIYRANRLVDGVPSRFSGSGSGQDYTLTISSLQPEDFATYYCLQYDEFPLTFGGGTKVEIK", "modifications": "PBD dimer payload (talirine)"}}, "test_system": "FLT3/ITD MV4-11 xenografts", "assay": "Survival of FLT3/ITD MV4-11 xenografts", "type": "in vivo", "conditions": "MV4-11 s.c. in SCID mice, quizartinib 0.4 mg/kg daily for 21 days by mouth", "procedure": "Five million MV4-11 cells were implanted subcutaneously in SCID mice. Tumor growth was monitored throughout the course of the study with bilateral vernier caliper measurements, and mean tumor volumes were calculated using the equation (0.5×[length×width^2]).\nMice with advanced tumor burden were sacrificed upon reaching tumor volumes of greater than 400 mm^3 or showing symptoms of hind limb paralysis, cranial swelling, and/or moribundity."}
{"molecule": "B1", "values": [{"measurement": "effect on progression / survival", "setting": "ADC 10 mcg/kg once i.p., FIG. 5", "value": "induced delay of progression"}, {"measurement": "median survival time", "setting": "SGN-CD33A or SGN-CD123A 10 mcg/kg once i.p., untreated 23 days", "value": 31, "unit": "days"}]}
